Measured values as given in article PMC5007331, “YTHDF2 destabilizes m^6A-containing RNA through direct recruitment of the CCR4–NOT deadenylase complex” (Nature Communications, 2016).

T1: His-tagged full-length YTHDF2 (human, UniProt Q9Y5A9 1-579)
T1 sequence (looked up): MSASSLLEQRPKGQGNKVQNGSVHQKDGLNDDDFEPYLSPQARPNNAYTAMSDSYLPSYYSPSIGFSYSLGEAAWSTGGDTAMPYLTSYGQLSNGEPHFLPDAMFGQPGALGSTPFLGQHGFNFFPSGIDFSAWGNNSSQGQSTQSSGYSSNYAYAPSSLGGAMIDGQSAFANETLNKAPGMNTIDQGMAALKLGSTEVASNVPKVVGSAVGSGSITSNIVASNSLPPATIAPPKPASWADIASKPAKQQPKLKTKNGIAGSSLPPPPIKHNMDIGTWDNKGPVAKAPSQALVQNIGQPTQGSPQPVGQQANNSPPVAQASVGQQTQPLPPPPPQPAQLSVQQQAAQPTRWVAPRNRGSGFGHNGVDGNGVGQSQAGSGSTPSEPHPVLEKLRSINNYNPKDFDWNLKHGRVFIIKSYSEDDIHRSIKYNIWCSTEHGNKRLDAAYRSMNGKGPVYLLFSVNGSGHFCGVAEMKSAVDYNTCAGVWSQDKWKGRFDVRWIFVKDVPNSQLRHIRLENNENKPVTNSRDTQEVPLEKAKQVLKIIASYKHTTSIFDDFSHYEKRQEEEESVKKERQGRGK

B1: CNOT1 SH domain-GST fusion protein (aa 1842-2376) (domain or fragment, human, UniProt A5YKK6 1842-2376, looked up)
chain: YDDPPGLREKAEYLLREWVNLYHSAAAGRDSTKAFSAFVGQMHQQGILKTDDLITRFFRLCTEMCVEISYRAQAEQQHNPAANPTMIRAKCYHNLDAFVRLIALLVKHSGEATNTVTKINLLNKVLGIVVGVLLQDHDVRQSEFQQLPYHRIFIMLLLELNAPEHVLETINFQTLTAFCNTFHILRPTKAPGFVYAWLELISHRIFIARMLAHTPQQKGWPMYAQLLIDLFKYLAPFLRNVELTKPMQILYKGTLRVLLVLLHDFPEFLCDYHYGFCDVIPPNCIQLRNLILSAFPRNMRLPDPFTPNLKVDMLSEINIAPRILTNFTGVMPPQFKKDLDSYLKTRSPVTFLSDLRSNLQVSNEPGNRYNLQLINALVLYVGTQAIAHIHNKGSTPSMSTITHSAHMDIFQNLAVDLDTEGRYLFLNAIANQLRYPNSHTHYFSCTMLYLFAEANTEAIQEQITRVLLERLIVNRPHPWGLLITFIELIKNPAFKFWNHEFVHCAPEIEKLFQSVAQCCMGQKQAQQVMEGTGAS

Experiments:
[1] = biological target: B1; assay: pull-down; GST pull-down: 40 pmol YTHDF2 fragment with 40 pmol GST or GST-CNOT1 (aa 1842-2376) on glutathione Sepharose-4B; 20 mM HEPES pH 7.4, 200 mM NaCl, 0.1% Tween-20; 2 h at 4 °C; SDS-PAGE and Coomassie Blue staining; conditions: both partners purified
[2] = biological target: T1, His-tagged full-length YTHDF2; assay: as above; conditions: both partners purified

binding result [1] | binding result [2] | Binder
binds |  | His-tagged YTHDF2-101-200 (domain or fragment, human, UniProt Q9Y5A9 101-200, looked up, Cloned into pET-28a; source: E. coli, purified recombinant) PDAMFGQPGALGSTPFLGQHGFNFFPSGIDFSAWGNNSSQGQSTQSSGYSSNYAYAPSSLGGAMIDGQSAFANETLNKAPGMNTIDQGMAALKLGSTEVA
 | binds | B1
binds |  | His-tagged YTHDF2-N (YTHDF2-1-400) (domain or fragment, human, UniProt Q9Y5A9 1-400, looked up, YTHDF2, human, N-terminal region, aa 1-400; Cloned into pET-28a; The YTHDF2-N of the tethering plasmids is another construct (aa 1-389); source: E. coli, purified recombinant) MSASSLLEQRPKGQGNKVQNGSVHQKDGLNDDDFEPYLSPQARPNNAYTAMSDSYLPSYYSPSIGFSYSLGEAAWSTGGDTAMPYLTSYGQLSNGEPHFLPDAMFGQPGALGSTPFLGQHGFNFFPSGIDFSAWGNNSSQGQSTQSSGYSSNYAYAPSSLGGAMIDGQSAFANETLNKAPGMNTIDQGMAALKLGSTEVASNVPKVVGSAVGSGSITSNIVASNSLPPATIAPPKPASWADIASKPAKQQPKLKTKNGIAGSSLPPPPIKHNMDIGTWDNKGPVAKAPSQALVQNIGQPTQGSPQPVGQQANNSPPVAQASVGQQTQPLPPPPPQPAQLSVQQQAAQPTRWVAPRNRGSGFGHNGVDGNGVGQSQAGSGSTPSEPHPVLEKLRSINNYNP
